Ends that are not written are not given here.
B1: Phage-displayed 12-mer peptide HETAVRQTSPPM (Group A; Phage ID 9, 20, 22) (peptide)
peptide: HETAVRQTSPPM
modifications: not fully specified
notes: no synthetic peptide was tested; also called Phage ID 20; Phage ID 22; not shown: protein III of bacteriophage M13 (Ph.D-12 library, New England Biolabs); any li
B2: Phage-displayed 12-mer peptide HETACRQTSPPM (Group A; Phage ID 11) (peptide)
peptide: HETACRQTSPPM
modifications: not fully specified
notes: not shown: protein III of bacteriophage M13 (Ph.D-12 library, New England Biolabs); any li
B3: Phage-displayed 12-mer peptide HPKQSLHFPDLS (Group B; Phage ID 6) (peptide)
peptide: HPKQSLHFPDLS
modifications: not fully specified
notes: as for B2
B4: Phage-displayed 12-mer peptide HPYDSLHFPRMS (Group B; Phage ID 4, 6-1) (peptide)
peptide: HPYDSLHFPRMS
modifications: not fully specified
notes: also called Phage ID 6-1; not shown: protein III of bacteriophage M13 (Ph.D-12 library, New England Biolabs); any li

Biological target: T1, human GABAC receptor rho1 subunit expressed on stably transfected neuroblastoma cells (human, UniProt P24046 22-479)
T1 construct: whole, on cells; the pentameric state on these cells was not measured; also called GABAC human ρ1; GABAC-transfected neuroblastoma cells
T1 sequence (P24046 22-479): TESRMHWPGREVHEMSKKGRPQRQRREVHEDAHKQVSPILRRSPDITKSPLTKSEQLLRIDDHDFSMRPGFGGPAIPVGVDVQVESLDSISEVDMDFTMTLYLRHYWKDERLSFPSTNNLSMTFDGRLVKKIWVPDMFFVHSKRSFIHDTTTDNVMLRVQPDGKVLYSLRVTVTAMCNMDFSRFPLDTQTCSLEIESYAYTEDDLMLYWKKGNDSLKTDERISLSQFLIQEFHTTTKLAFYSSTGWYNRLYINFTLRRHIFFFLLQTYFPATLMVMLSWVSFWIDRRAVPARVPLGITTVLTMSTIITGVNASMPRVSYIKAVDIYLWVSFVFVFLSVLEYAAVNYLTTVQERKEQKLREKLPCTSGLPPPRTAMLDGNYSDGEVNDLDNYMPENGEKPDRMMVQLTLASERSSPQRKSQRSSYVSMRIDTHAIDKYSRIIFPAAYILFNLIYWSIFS
Test: phage display panning (Ph.D-12 library): subtraction on non-transfected neuroblastoma cells, then three rounds on GABAC-transfected neuroblastoma cells; clones sequenced
Description: Screening of phage display peptides with GABAC-expressing cells MAY employ phage display to identify 12-mer peptide sequences that can serve as an NNP anchoring element. GABAC-transfected neuroblastoma cells have yielded sequences of peptides that preferentially bind to GABAC-expressing cells. For phage selection, we used a screening method similar to that previously used to identify phages that bind to ErbB receptors (Stortelers et al., 2003). Briefly, 2×10¹⁰ phages (Ph.D-12 library from New England Biolabs, MA) were incubated with control, non-transfected neuroblastoma cells in binding buffer (PBS containing 0.2% BSA, 0.05% Tween 20) for 2 hr. Non-bound phages were collected and then incubated with GABAC-transfected neuroblastoma cells for 2 hr. After rinsing several times with washing buffer (0.05% Tween 20 in PBS), bound phages were eluted using an acidic glycine buffer (50 mM glycine, 150 mM NaCl, pH 2.7) and neutralized with 1 M Tris, pH 8. After phage titration of the eluate, we performed a second and then a third round of bio-panning using the GABAC-transfected neuroblastoma cells. After the third round of panning, DNA isolated from individual phage plaques was sequenced. […] The 7 illustrated sequences represent individual phage clones from a total of 36 sequenced clones.

| Binder | binding result |
| --- | --- |
| B1 | binds |
| B2 | binds |
| B3 | binds |
| B4 | binds |

— patent US20080293915A1 (published 2008)
